We go through 21 variants from the RNAGym collection of RNA variant scans (doi:10.1073/pnas.2313332121).

B1: TPR t1 (parent)
chain: GACCAAUCUGCCCUCAGAGCUCGAGAACAUCUUCGGAUGCAGAGGAGGCAGGCUUCGGUGGCGCGAUAGCGCCAACGUCCUCAACCUCCAAUGCAUCCCACCACAUGAUGAUGCCUGAAGAGCCUUGGUUUUUUG

Variants of B1 are the subject of the data set. Put plainly: polymerase ribozyme fitness, log enrichment relative to wild type (log ratio); higher = more active; in vitro selection for triplet polymerase activity. Summed up: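 Mutant libraries for each subunit of a heterodimeric triplet polymerase ribozyme were made by PCR and then transcribed. Each library underwent one round of in vitro selection in triplicate: annealing with a biotinylated primer, the partner subunit and triplets, frozen incubation at −7 °C, gel excision of extended constructs, streptavidin-bead capture and RT-PCR. Input and output libraries were Illumina-sequenced, and only genotypes with ≥10 input reads and ≥1 read per output were kept. Fitness is the logarithm, base 2, of genotype enrichment over wild-type enrichment, computed from inverse-variance-weighted replicate averages.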
In the case of GACCAAUCUGCCCUCAGAGCUCGAGAACAUCUUCGGAUGCAGAGGAGGCAGGCUUCGGUGGCGCGAUAGCGCCAACGUCCUCAACCUCCAAUGCAUCCCACCACAUGAUGAUGCCUGAAGGGCCUUGAUUUUUUG [A121G G128A], the “polymerase ribozyme fitness (log ratio)” value was determined as 0.956.
In the case of GACCAAUCUGCCCUCAGAGCUCGAGAACAUCUUCGGAUGCAGAGGAGGCAGGCUUCGGUGGCGCGAUAGCGCCAACGUCCUCAACCUCCAAUGCAUCCCACCACAUGAUGAUGCCUGAAGAGCGUAGGUUUUUUG [C124G U126A] it was 1.15; in that of GACCAAUCUGCCCUCAGAGCUCGAGAACAUCUUCGGAUGCAGAGGAGGCAGGCUUCGGUGGCGCGAUAGCGCCAACGUCCUCAACCUCCAAUGCAUCCCACCACAUGAUGAUGCCUGAAGAGCCUAGGUAUUUUG [U126A U130A], -3.19.
Consider GACCAAUCUGCCCUCAGAGCUCGAGAACAUCUUCGGAUGCAGAGGAGGCAGGCUUCGGUGGCGCGAUAGCGCCAACGUCCUCAACCUCCAAUGCAUCCCACCACAUGAUGAUGCCUGAAGCACCUUGGUUUUUUG [A121C G122A], for which the “polymerase ribozyme fitness (log ratio)” value turned out to be 1.31.
On to GACCAAUCUGCCCUCAGAGCUCGAGAACAUCUUCGGAUGCAGAGGAGGCAGGCUUCGGUGGCGCGAUAGCGCCAACGUCCUCAACCUCCAAUGCAUCCCACCACAUGAUGAUGCCUGAAUAGACUUGGUUUUUUG [G120U C123A], for which the “polymerase ribozyme fitness (log ratio)” value was -0.201.
As to GACCAAUCUGCCCUCAGAGCUCGAGAACAUCUUCGGAUGCAGAGGAGGCAGGCUUCGGUGGCGCGAUAGCGCCAACGUCCUCAACCUCCAAUGCAUCCCACCACAUGAUGAUGCCUGAAGAGCCUUCGCUUUUUG [G127C U129C], the “polymerase ribozyme fitness (log ratio)” value is -2.22.
Then GACCAAUCUGCCCUCAGAGCUCGAGAACAUCUUCGGAUGCAGAGGAGGCAGGCUUCGGUGGCGCGAUAGCGCCAACGUCCUCAACCUCCAAUGCAUCCCACCACAUGAUGAUGCCUGAAUAGCCUUGGUUUAUUG [G120U U132A], with 0.126; and GACCAAUCUGCCCUCAGAGCUCGAGAACAUCUUCGGAUGCAGAGGAGGCAGGCUUCGGUGGCGCGAUAGCGCCAACGUCCUCAACCUCCAAUGCAUCCCACCACAUGAUGAUGCCUGAAGAGGCUGGGUUUUUUG [C123G U126G], with -0.0102; and GACCAAUCUGCCCUCAGAGCUCGAGAACAUCUUCGGAUGCAGAGGAGGCAGGCUUCGGUGGCGCGAUAGCGCCAACGUCCUCAACCUCCAAUGCAUCCCACCACAUGAUGAUGCCUGAAGAGCAUUGGUUUUUGG [C124A U134G], with 3.41.
Then GACCAAUCUGCCCUCAGAGCUCGAGAACAUCUUCGGAUGCAGAGGAGGCAGGCUUCGGUGGCGCGAUAGCGCCAACGUCCUCAACCUCCAAUGCAUCCCACCACAUGAUGAUGCCUGAAGCGCCUUAUUUUUUUG [A121C G127A G128U], with -0.559.
Then GACCAAUCUGCCCUCAGAGCUCGAGAACAUCUUCGGAUGCAGAGGAGGCAGGCUUCGGUGGCGCGAUAGCGCCAACGUCCUCAACCUCCAAUGCAUCCCACCACAUGAUGAUGCCUGAACAGCCUUGGAUUUUUG [G120C U129A], with -1.15; and GACCAAUCUGCCCUCAGAGCUCGAGAACAUCUUCGGAUGCAGAGGAGGCAGGCUUCGGUGGCGCGAUAGCGCCAACGUCCUCAACCUCCAAUGCAUCCCACCACAUGAUGAUGCCUGAAUAGCCUUCGUUUUUUG [G120U G127C], with -0.262; and GACCAAUCUGCCCUCAGAGCUCGAGAACAUCUUCGGAUGCAGAGGAGGCAGGCUUCGGUGGCGCGAUAGCGCCAACGUCCUCAACCUCCAAUGCAUCCCACCACAUGAUGAUGCCUGAAUAGCCUUUGUUUUUUG [G120U G127U], with 1.64.
Turning to GACCAAUCUGCCCUCAGAGCUCGAGAACAUCUUCGGAUGCAGAGGAGGCAGGCUUCGGUGGCGCGAUAGCGCCAACGUCCUCAACCUCCAAUGCAUCCCACCACAUGAUGAUGCCUGAAGAGCCUUGUCUUUUUG [G128U U129C], the “polymerase ribozyme fitness (log ratio)” value is -0.805.
In the case of GACCAAUCUGCCCUCAGAGCUCGAGAACAUCUUCGGAUGCAGAGGAGGCAGGCUUCGGUGGCGCGAUAGCGCCAACGUCCUCAACCUCCAAUGCAUCCCACCACAUGAUGAUGCCUGAAGAACCUUGGUUUUGUG [G122A U133G] it was -0.871.
In the case of GACCAAUCUGCCCUCAGAGCUCGAGAACAUCUUCGGAUGCAGAGGAGGCAGGCUUCGGUGGCGCGAUAGCGCCAACGUCCUCAACCUCCAAUGCAUCCCACCACAUGAUGAUGCCUGAAGCGCCUUGGAUUUUUG [A121C U129A], the “polymerase ribozyme fitness (log ratio)” value is -1.04.
In the case of GACCAAUCUGCCCUCAGAGCUCGAGAACAUCUUCGGAUGCAGAGGAGGCAGGCUUCGGUGGCGCGAUAGCGCCAACGUCCUCAACCUCCAAUGCAUCCCACCACAUGAUGAUGCCUGAAGUGCUUUGGUUUUUUG [A121U C124U] it was 2.15.
Then GACCAAUCUGCCCUCAGAGCUCGAGAACAUCUUCGGAUGCAGAGGAGGCAGGCUUCGGUGGCGCGAUAGCGCCAACGUCCUCAACCUCCAAUGCAUCCCACCACAUGAUGAUGCCUGAAGAGUCUUGGAUUUUUG [C123U U129A], with 0.307; and GACCAAUCUGCCCUCAGAGCUCGAGAACAUCUUCGGAUGCAGAGGAGGCAGGCUUCGGUGGCGCGAUAGCGCCAACGUCCUCAACCUCCAAUGCAUCCCACCACAUGAUGAUGCCUGAAGAGCCUUAGGUUUUUG [G127A U129G], with -1.62.
In the case of GACCAAUCUGCCCUCAGAGCUCGAGAACAUCUUCGGAUGCAGAGGAGGCAGGCUUCGGUGGCGCGAUAGCGCCAACGUCCUCAACCUCCAAUGCAUCCCACCACAUGAUGAUGCCUGAAGAGCGUUGCUUUUUUG [C124G G128C] it was -0.216.
For the variant GACCAAUCUGCCCUCAGAGCUCGAGAACAUCUUCGGAUGCAGAGGAGGCAGGCUUCGGUGGCGCGAUAGCGCCAACGUCCUCAACCUCCAAUGCAUCCCACCACAUGAUGAUGCCUGAAGAGACUUGCUUUUUUG [C123A G128C], the “polymerase ribozyme fitness (log ratio)” value is -0.87.
